Where two headings read alike, the source gives them in different places.
Tested on: SARS-CoV-2
[1] = Treated within 5 days of symptom onset, n=800 vs placebo 879
[2] = Unvaccinated population, n=143 vs placebo 176
[3] = final, treatment ≤3 days of symptom onset
[4] = high-risk patients, pooled Brazil+Toronto
[5] = intention-to-treat, N = 931 vs placebo N = 1018
[6] = treatment within 3 days of symptom onset
[7] = unvaccinated patients, treatment within 3 days of symptoms
[8] = ≤3 days of symptoms before treatment, preliminary

B1: pegylated interferon lambda-1a (protein)
chain: MKPTTTGKGCHIGRFKSLSPQELASFKKARDALEESLKLKNWSCSSPVFPGNWDLRLLQVRERPVALEAELALTLKVLEAAAGPALEDVLDQPLHTLHHILSQLQACIQPQPTAGPRPRGRLHHWLHRLQEAPKKESAGCLEASVTFNLFRLLTRDLKYVADGNLSLRTSTHPEST
modifications: PEG
notes: 180 mcg subcutaneous injection
**Q.** Which results are given for B1?
**A.** Hospitalization or ER (any duration) for COVID-19, RR (95% CrI) vs placebo [1]: 0.73 (0.56, 0.94); Hospitalization or ER ≥6 h for COVID-19, % of patients [1]: (2.5%); Hospitalization or ER ≥6 h for COVID-19, Pr (Superiority) [1]: 1.000; Hospitalization or ER ≥6 h for COVID-19, RR (95% CrI) vs placebo [1]: 0.45 (0.26, 0.72); Death due to COVID-19, % of patients [2]: 0 (0%); Death due to COVID-19, RR (95% CrI) vs placebo [2]: 0.51 (0.02, 6.47); Death or hospitalization due to COVID-19, % of patients [2]: 4.2%; Death or hospitalization due to COVID-19, RR (95% CrI) vs placebo [2]: 0.49 (0.19, 1.12); Hospitalization for COVID-19, % of patients [2]: 4.2%; Hospitalization for COVID-19, RR (95% CrI) vs placebo [2]: 0.49 (0.19, 1.12); Hospitalization or ER (any duration) for COVID-19, % of patients [2]: 16.1%; Hospitalization or ER (any duration) for COVID-19, Pr (Superiority) [2]: 0.806; Hospitalization or ER (any duration) for COVID-19, RR (95% CrI) vs placebo [2]: 0.82 (0.50, 1.29); Hospitalization or ER ≥6 h for COVID-19, % of patients [2]: 4.2%; Hospitalization or ER ≥6 h for COVID-19, Pr (Superiority) [2]: 0.967; Hospitalization or ER ≥6 h for COVID-19, RR (95% CrI) vs placebo [2]: 0.46 (0.18, 1.05); deaths in the arm (early treated patients): no deaths; COVID-19 deaths in the treatment arm (final ITT): one; Hazard ratio, COVID-19-related hospitalization or death (all-cause death) (final ITT): 0.59; hazard ratio, COVID-19 death (final ITT): 0.22; hazard ratio, risk of hospitalization (final ITT): 0.57; relative risk, COVID-19-related hospitalization alone (final ITT): 0.57; risk reduction, COVID-19-related hospitalization or all-cause death (final ITT): 41%; relative risk, primary outcome (final ITT, 931 vs placebo 1018): 0.49; participants experiencing a primary outcome event, % (final ITT, n=931): 2.7%; participants experiencing a primary outcome event, count (final ITT, n=931): 25 of 931; absolute risk reduction (with 95% Bayesian credible intervals) plotted, FIG. 14 (final ITT, patients receiving peginterferon lambda): 0.028 (0.018, 0.039); relative risk, primary outcome (final, treatment within 3 days of symptom onset): 0.42; Hazard ratio, COVID-19-related hospitalization or death [3]: 0.35; risk reduction, COVID-19-related hospitalization or death [3]: 65%; RR, All-cause mortality or Hospitalization (high-risk patients, Brazil): 0.69; RR, Death or Hospitalization due to COVID-19 (high-risk patients, Brazil): 0.63; RR, Hospitalization or ER visit>6 hours (high-risk patients, Brazil): 0.49; probability of superiority (Pr), Hospitalization or ER visit>6 hours (high-risk patients, Brazil): 0.990; Pr, Hospitalization or ER visit>6 hours [4]: 0.990; RR, All-cause mortality or Hospitalization [4]: 0.69; RR, Death or Hospitalization due to COVID-19 [4]: 0.63; RR, Hospitalization or ER visit>6 hours [4]: 0.49; participants with primary outcome event, count (human, in vivo): 23/929; relative risk, primary outcome (human, in vivo): 0.47; Days on mechanical ventilation: mean (intention-to-treat, N = 931): 10.2 days; Death due to COVID-19: percentage of patients (intention-to-treat, N = 931): (0.1%); Death due to COVID-19: total (no. of patients) (intention-to-treat, N = 931): 1; Death or hospitalization due to COVID-19: percentage of patients (intention-to-treat, N = 931): (2.4%); Death or hospitalization due to COVID-19: total (no. of patients) (intention-to-treat, N = 931): 22; Hospitalization for COVID-19: percentage of patients (intention-to-treat, N = 931): (2.3%); Hospitalization for COVID-19: total (no. of patients) (intention-to-treat, N = 931): 21; Hospitalization or ER (any duration) for COVID-19: percentage of patients (intention-to-treat, N = 931): (10.6%); Hospitalization or ER (any duration) for COVID-19: total (no. of patients) (intention-to-treat, N = 931): 99; Hospitalization or ER visit >6 h for COVID-19: percentage of patients (intention-to-treat, N = 931): (2.7%); Hospitalization or ER visit >6 h for COVID-19: total (no. of patients) (intention-to-treat, N = 931): 25; Days on mechanical ventilation: MD (95% CrI), estimated treatment effect [5]: −4.47 (−6.89, 3.09); Days on mechanical ventilation: Probability of Superiority (MD) [5]: 90.5; Days to death for COVID-19: HR (95% CI), estimated treatment effect [5]: 0.22 (0.01, 1.64); Days to death for COVID-19: Probability of Superiority (HR) [5]: 90.7; Days to death or hospitalization due to COVID-19: HR (95% CrI), estimated treatment effect [5]: 0.59 (0.35, 0.97); Days to death or hospitalization due to COVID-19: Probability of Superiority (HR) [5]: 98.1; Days to hospitalization for COVID-19: HR (95% CrI), estimated treatment effect [5]: 0.57 (0.33, 0.95); Days to hospitalization for COVID-19: Probability of Superiority (HR) [5]: 98.5; Days to hospitalization or ER visit >6 h for COVID-19: HR (95% CrI), estimated treatment effect [5]: 0.47 (0.29, 0.73); Days to hospitalization or ER visit >6 h for COVID-19: Probability of Superiority (HR) [5]: >99.9; Death due to COVID-19: Probability of Superiority (RR) [5]: 86.9; Death due to COVID-19: RR (95% CrI), estimated treatment effect [5]: 0.39 (0.05, 1.95); Death or hospitalization due to COVID-19: Probability of Superiority (RR) [5]: 97.7; Death or hospitalization due to COVID-19: RR (95% CrI), estimated treatment effect [5]: 0.61 (0.36, 0.99); Hospitalization for COVID-19: Probability of Superiority (RR) [5]: 98.3; Hospitalization for COVID-19: RR (95% CrI), estimated treatment effect [5]: 0.58 (0.34, 0.96); Hospitalization or ER (any duration) for COVID-19: Probability of Superiority (RR) [5]: 98.1; Hospitalization or ER (any duration) for COVID-19: RR (95% CrI), estimated treatment effect [5]: 0.78 (0.61, 0.99); Hospitalization or ER visit >6 h for COVID-19: Probability of Superiority (RR) [5]: >99.9; Hospitalization or ER visit >6 h for COVID-19: RR (95% CrI), estimated treatment effect [5]: 0.49 (0.30, 0.76); relative risk, primary outcome (per protocol analysis (25/931 vs 43/825)): 0.52; fewer COVID-19-related deaths than placebo (preliminary ITT): 75%; hazard ratio, COVID-19-related hospitalization [6]: 0.35; relative risk, all-cause death [6]: 0.19; risk reduction in all-cause death [6]: 81%; risk reduction of COVID-19-related hospitalization [6]: 65%; Hazard ratio vs. placebo [7]: 0.11; risk (hazard) reduction, COVID-19-related hospitalization or death [7]: 89%; Risk Reduction (95% BCI), Hospitalizations or Deaths [8]: 60% (17-82%); Risk Reduction (95% BCI), Hospitalizations or ER visits [8]: 67% (19-79%); Risk Reduction (95% BCI), Hospitalizations or Deaths (≤7 days of symptoms before treatment, preliminary): 39% (1-64%)
